Data taken from patent EP4722245A1, “ANTIBODY TARGETING ITGA2, ANTIBODY DRUG CONJUGATE THEREOF, AND USE” (Foreseen Technology (Beijing) Co., Ltd., priority 2023, dated 2024).
Positions count from the first letter of the chain named.

T1: ITGA2 protein on the surface of human tumor cells (human, UniProt P17301 30-1181)
T1 construct: whole, on cells; Endogenously expressed; the cell line is named under assay or readout; also called Integrin alpha-2; ITGA2-positive HuCCT1 cells
T1 sequence (looked up): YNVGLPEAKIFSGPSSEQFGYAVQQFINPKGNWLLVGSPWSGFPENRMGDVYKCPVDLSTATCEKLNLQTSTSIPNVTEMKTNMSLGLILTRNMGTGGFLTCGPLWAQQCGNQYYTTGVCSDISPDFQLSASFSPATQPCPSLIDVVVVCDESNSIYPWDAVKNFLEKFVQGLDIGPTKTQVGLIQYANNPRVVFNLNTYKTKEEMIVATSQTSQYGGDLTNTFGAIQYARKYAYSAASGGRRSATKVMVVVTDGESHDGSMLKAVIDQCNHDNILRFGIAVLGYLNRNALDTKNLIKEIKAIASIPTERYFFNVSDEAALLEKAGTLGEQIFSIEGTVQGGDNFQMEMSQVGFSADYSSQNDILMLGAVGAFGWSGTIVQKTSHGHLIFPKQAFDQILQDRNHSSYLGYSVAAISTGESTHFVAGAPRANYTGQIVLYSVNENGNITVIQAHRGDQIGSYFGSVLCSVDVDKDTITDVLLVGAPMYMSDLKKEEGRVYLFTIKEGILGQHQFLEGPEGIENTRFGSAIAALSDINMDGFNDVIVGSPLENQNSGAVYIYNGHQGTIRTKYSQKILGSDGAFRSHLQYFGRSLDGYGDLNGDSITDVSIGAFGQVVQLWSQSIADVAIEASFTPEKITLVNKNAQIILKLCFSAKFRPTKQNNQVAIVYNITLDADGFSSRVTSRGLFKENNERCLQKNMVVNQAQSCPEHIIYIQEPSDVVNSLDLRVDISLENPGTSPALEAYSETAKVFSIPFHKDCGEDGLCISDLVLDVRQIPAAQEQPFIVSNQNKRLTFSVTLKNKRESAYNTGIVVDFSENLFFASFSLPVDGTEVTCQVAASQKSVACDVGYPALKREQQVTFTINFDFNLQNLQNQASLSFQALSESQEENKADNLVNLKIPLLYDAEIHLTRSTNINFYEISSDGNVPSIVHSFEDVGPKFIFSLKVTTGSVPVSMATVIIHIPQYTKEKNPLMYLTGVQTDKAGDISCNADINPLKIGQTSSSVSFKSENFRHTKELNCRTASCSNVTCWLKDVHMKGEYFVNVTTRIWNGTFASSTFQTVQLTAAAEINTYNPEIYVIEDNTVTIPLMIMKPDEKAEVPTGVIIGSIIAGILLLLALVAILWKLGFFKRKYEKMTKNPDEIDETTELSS

T2: ITGA2-His (UniProt P17301 30-1132, limits assumed)
T2 construct: Coated on the ELISA plate at 2 ug/mL; whole entry P17301 is named; also called ITGA2 protein; not shown: His tag
T2 sequence (looked up): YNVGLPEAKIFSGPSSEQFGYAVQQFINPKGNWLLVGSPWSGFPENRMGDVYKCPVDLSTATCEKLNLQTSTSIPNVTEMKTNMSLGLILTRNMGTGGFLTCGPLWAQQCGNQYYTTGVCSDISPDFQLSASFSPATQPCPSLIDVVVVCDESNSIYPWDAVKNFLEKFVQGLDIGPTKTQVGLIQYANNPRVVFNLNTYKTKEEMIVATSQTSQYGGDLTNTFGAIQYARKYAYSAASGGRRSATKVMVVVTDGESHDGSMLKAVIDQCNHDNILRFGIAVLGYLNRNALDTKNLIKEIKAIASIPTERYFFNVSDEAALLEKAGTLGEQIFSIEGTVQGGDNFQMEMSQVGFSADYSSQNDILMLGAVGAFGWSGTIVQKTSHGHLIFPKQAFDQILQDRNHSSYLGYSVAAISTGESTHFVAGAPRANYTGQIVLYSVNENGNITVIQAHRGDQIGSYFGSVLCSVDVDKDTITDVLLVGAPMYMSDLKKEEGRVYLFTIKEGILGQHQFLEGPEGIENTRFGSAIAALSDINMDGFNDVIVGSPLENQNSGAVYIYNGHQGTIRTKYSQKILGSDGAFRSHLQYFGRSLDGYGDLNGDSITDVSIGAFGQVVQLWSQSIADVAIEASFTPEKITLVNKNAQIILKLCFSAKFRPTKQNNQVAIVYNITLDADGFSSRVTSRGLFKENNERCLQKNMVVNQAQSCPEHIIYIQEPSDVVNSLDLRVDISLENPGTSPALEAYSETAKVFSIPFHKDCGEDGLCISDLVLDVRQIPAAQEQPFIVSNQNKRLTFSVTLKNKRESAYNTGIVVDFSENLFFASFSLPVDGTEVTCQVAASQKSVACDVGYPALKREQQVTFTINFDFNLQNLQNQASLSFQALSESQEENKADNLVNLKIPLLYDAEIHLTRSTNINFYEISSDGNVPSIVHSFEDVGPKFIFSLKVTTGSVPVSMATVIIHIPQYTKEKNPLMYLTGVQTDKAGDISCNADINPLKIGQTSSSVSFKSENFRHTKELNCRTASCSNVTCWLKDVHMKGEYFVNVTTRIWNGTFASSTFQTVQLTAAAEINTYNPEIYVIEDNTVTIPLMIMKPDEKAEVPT

B1: Humanized antibody FS002-A153-H5L2 (antibody, human IgG1, kappa, V domains shown)
VH: QVQLVQSGAEVKKPGASVKVSCKASGYTFTDYEMHWVRQAPGQGLEWMGTIDPETGGTTYAQKFQGRVTMTADTSISTAYMELSRLRSDDTAVYYCARSGYYVSSYESYAMDYWGQGTTVTVSS
VL: DIVMTQSPDSLAVSLGERVTMNCKSSQSLLNSGNQKNYLTWYQQKPGQPPKLLIYGASTRESGVPDRFSGSGSGTDFTLTISSLQAEDVAVYYCQNDYSYPFTFGGGTKLEIKR
notes: Humanized IgG1 kappa
B2: Humanized antibody FS002-A226-H4L3 (antibody, human IgG1, kappa, V domains shown)
VH: B1 VH with M34I, M48I, T50A, T59N, A61N, M70L, A97S, S105N
VL: DIQITQSPSSMSASVGDRVTITCKASQDIKSYLSWYQQKPGKAPKLLIYDTSNLASGVPSRFSGSGSGTDYTLTISSLQPEDFATYYCQQWSSYPFTFGGGTKLEIKR
notes: Humanized IgG1 kappa
B3: Humanized antibody FS002-A103-H4L3 (antibody, human IgG1, kappa, V domains shown)
VH: B1 VH with T50V, A61N, M70L, A97S
VL: EIVMTQSPPTMSMSPGERVTLSCKASENVGTYVSWYQQKPGQAPRLLIYGASTRESGVPARFSGSGSGTDFTLTISSLQPEDFAVYYCQNDYSYPFTFGGGTKLEIKR
notes: Humanized IgG1 kappa
B4: Humanized antibody FS002-A208-H4L4 (antibody, human IgG1, kappa, V domains shown)
VH: B1 VH with M34I, M48I, T50A, T59N, A61N, M70L, A97S, S105N
VL: DIQMTQSPSSLSASVGDRVTITCRASQNVGTNVAWYQQKPEKAPKSLIYSASYRFSGVPSRFSGSGSGTDFTLTISSLQPEDFATYYCQQYNIYPLSFGGGTKLELKR
notes: Humanized IgG1 kappa
B5: Humanized antibody FS002-A153-H5L5 (antibody, human IgG1, kappa, V domains shown)
VH: B1 VH
VL: EIVMTQSPPTLSLSPGERVTMSCRSSQSLLNSGNQKNYLTWYQQKPGQAPRLLIYGASTRESGVPARFSGSGSGTDFTLTISSLQPEDFAVYYCQNDYSYPFTFGGGTKLEIKR
notes: Humanized IgG1 kappa
B6: Humanized antibody FS002-A153-H5L4 (antibody, human IgG1, kappa, V domains shown)
VH: B1 VH
VL: B5 VL with E1D, L13V, R24K, A66D
notes: Humanized IgG1 kappa
B7: Humanized antibody FS002-A153-H5L1 (antibody, human IgG1, kappa, V domains shown)
VH: B1 VH
VL: B1 VL with N22S, S69T
notes: Humanized IgG1 kappa
B8: Humanized antibody FS002-A226-H5L3 (antibody, human IgG1, kappa, V domains shown)
VH: B1 VH with M34I, T50A, T59N, A97S, S105N
VL: B2 VL
notes: Humanized IgG1 kappa
B9: Humanized antibody FS002-A226-H3L4 (antibody, human IgG1, kappa, V domains shown)
VH: QLQLVQSGAEVKKPGASVKVSCKASGYTFTDYEIHWVRQAPGQGLEWIGAIDPETGGTNYNQKFNDRVTLTADTSISTAYMELSRLRSDDTAVYYCSRSGYYVSNYESYAMDYWGQGTTVTVSS
VL: B2 VL with I4L, M11L, K24R, Y71F
notes: Humanized IgG1 kappa
B10: Humanized antibody FS002-A208-H3L4 (antibody, human IgG1, kappa, V domains shown)
VH: B9 VH with L2V, T74K
VL: B4 VL
notes: Humanized IgG1 kappa
B11: Humanized antibody FS002-A153-H4L2 (antibody, human IgG1, kappa, V domains shown)
VH: B1 VH with M70L, A97S
VL: B1 VL
notes: Humanized IgG1 kappa
B12: Humanized antibody FS002-A208-H5L4 (antibody, human IgG1, kappa, V domains shown)
VH: B1 VH with M34I, T50A, T59N, A97S, S105N
VL: B4 VL
notes: Humanized IgG1 kappa
B13: Humanized antibody FS002-A103-H4L2 (antibody, human IgG1, kappa, V domains shown)
VH: B1 VH with T50V, A61N, M70L, A97S
VL: B3 VL with P9K, A60D
notes: Humanized IgG1 kappa
B14: Humanized antibody FS002-A226-H5L4 (antibody, human IgG1, kappa, V domains shown)
VH: B1 VH with M34I, T50A, T59N, A97S, S105N
VL: B2 VL with I4L, M11L, K24R, Y71F
notes: Humanized IgG1 kappa
B15: Humanized antibody FS002-A153-H3L3 (antibody, human IgG1, kappa, V domains shown)
VH: B1 VH with V20L, M48I, A61N, M70L, A97S
VL: B1 VL with V19A, M21I
notes: Humanized IgG1 kappa
B16: Vatelizumab (antibody, V domains shown)
VH: QVQLQESGPGLVKPSETLSLTCTVSGFSLTNYGIHWIRQPPGKGLEWLGVIWARGFTNYNSALMSRLTISKDNSKNQVSLKLSSVTAADTAVYYCARANDGVYYAMDYWGQGTLVTVSS
VL: DFVMTQSPAFLSVTPGEKVTITCSAQSSVNYIHWYQQKPDQAPKKLIYDTSKLASGVPSRFSGSGSGTDYTFTISSLEAEDAATYYCQQWTTNPLTFGQGTKVEIK
B17: Chimeric mouse antibody FS002-A103 (antibody, human IgG1, kappa, V domains shown)
VH: QVQLQQSGAELVRPGASVTLSCKASGYTFTDYEMHWVKQTPVHGLEWIGVIDPETGGTTYNQKFNDKATLTADKSSSTAYMDLRSLTSEDSAVYYCSRSGYYVSSYESYAMDYWGQGTSVTVSS
VL: DIVMTQSPKSMSMSVGERVTLSCKASENVGTYVSWYQQKPEQSPKLLIYGASTRESGVPDRFTGSGSGTDFTLTISSVQAEDLAVYYCQNDYSYPFTFGSGTKLEIKR
notes: Chimeric; expressed in ExpiCHO-S
B18: Chimeric mouse antibody FS002-A153 (antibody, human IgG1, kappa, V domains shown)
VH: B17 VH with V50T
VL: B1 VL with D9S, A12T, S14T, L15A, R18K, N22S, S69T, L84V, V89L, G106S
notes: Chimeric
B19: Chimeric mouse antibody FS002-A208 (antibody, human IgG1, kappa, V domains shown)
VH: B17 VH with M34I, V50A, T59N, S105N
VL: DIVMTQSQKFMSTSVGDRVSVTCKASQNVGTNVAWYQQKPGQSPKTLIYSASYRFSGVPDRFTGSGSGTDFTLTINNVQSEDLADYFCQQYNIYPLSFGAGTKLELKR
notes: Chimeric
B20: Chimeric mouse antibody FS002-A226 (antibody, human IgG1, kappa, V domains shown)
VH: B17 VH with V2L, M34I, V50A, T59N, S105N
VL: DIKITQSPSSMYASLGERVTITCKASQDIKSYLSWYQQKPGSSPRLLIYDTSNLASGVPVRFSGRGSGTSYSLTISRMEAEDAATYYCQQWSSYPFTFGSGTKLEIKR
notes: Chimeric

Target: T1, ITGA2 protein on the surface of human …
Experiment: flow cytometry on HuCCT1 cells

Binder	EC50 [pM]
B1	220
B2	533
B3	80
B4	600
B5	480
B6	487
B7	580
B8	580
B9	280
B10	587
B11	313
B12	627
B13	127
B14	647
B15	420
B16	780
B17	633
B18	333
B19	760
B20	580

Target: T2, ITGA2-His
Experiment: ELISA, plate coated with 2 ug/mL ITGA2-His, anti-human IgG-Fc-HRP detection

Binder	EC50 [pM]
B1	9
B2	24
B3	6
B4	17
B5	22
B6	24
B7	27
B8	23
B9	23
B10	22
B11	11
B12	18
B13	6
B14	22
B15	14
B16	8
B17	17
B18	8
B19	20
B20	18
